The values below come from paper PMC4678816, “Structural basis for suppression of hypernegative DNA supercoiling by E. coli topoisomerase I”.

Data set [1] deals with E. coli topoisomerase I (EcTOP1) (Escherichia coli, UniProt P06612 1-865). Nature of the data set: X-ray crystallography; 1 mM ZnSO4, pH 6.0; 2.9 A; ssDNA 3' end bound by D5, D7, D8, D9 and R189; Footprinting: 40 mM Tris-HCl (pH not stated), 0.1 mg/ml BSA, 5 mM MgCl2, 37 C, 1 h; crystals: 0.125 M ammonium sulfate, 0.1 M MES pH 6.0, 1 mM ZnSO4, 19% PEG MME 5000, 24 C. The note with it: protein: recombinant; tags: N-terminal His6 removed with TEV protease; label: none in crystal; 3' overhang 9 nt on O29; 20 bp duplex.

Another data set concerns the target EcTOP1-G116S (Escherichia coli, UniProt P06612 1-865, G116S). Nature of the data set: DNase I footprinting; 5 mM MgCl2; partial protection of double-stranded region, both strands; Footprinting: 40 mM Tris-HCl (pH not stated), 0.1 mg/ml BSA, 5 mM MgCl2, 37 C, 1 h; crystals: 0.125 M ammonium sulfate, 0.1 M MES pH 6.0, 1 mM ZnSO4, 19% PEG MME 5000, 24 C. The note with it: protein: recombinant; label: 5' 32P on G-strand or T-strand; duplex with 12-nt unpaired bubble.

B1: O29-O20 partial duplex (mixed)
DNA 1: GCTAAACCTGAAAGATTATGCGATTTGGG
DNA 2: CATAATCTTTCAGGTTTAGC
For B1, in data set [1], the binding result was “binds”.

B2: DNA bubble substrate (G-strand/T-strand) (mixed)
DNA 1: GCCCTGAAAGATTATGGAATGCGATTAGTTCAAGAGCGTGAGCG
DNA 2: CGCTCACGCTCTTGAAGTAGAGGAAGGACATAATCTTTCAGGGC
Take B2: the binding result with EcTOP1-G116S is on record as “binds”.
